Test results published in the supplement of paper PMC9170038.

System: MS2 coat protein
Assay: apparent KD of MS2 coat protein; designed switch direction (-1 OFF switch, 1 ON switch): -1; higher = weaker reporter binding
Outline: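 Apparent KD, taken as the median over clusters for each design, was obtained by curve-fitting normalised cluster fluorescence. Designed RNA switches had been transcribed on Illumina chips by stalled E. coli RNA polymerase and titrated with SNAP-549-labelled MS2 coat protein, doubling from 0.7 or 1.5 nM to 3 µM.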

[1] = Eterna round: R95, input ligand: microRNA oligo, concentration not stated
[2] = Eterna round: R95, input ligand: FMN 200 uM
[3] = Eterna round: R95, input ligand: none
[4] = input ligand: microRNA oligo, concentration not stated

| Sequence | apparent KD of MS2 coat protein (input ligand: FMN 200 uM) | apparent KD of MS2 coat protein (input ligand: none) | apparent KD of MS2 coat protein [1] | apparent KD of MS2 coat protein [2] | apparent KD of MS2 coat protein [3] | apparent KD of MS2 coat protein [4] |
| --- | --- | --- | --- | --- | --- | --- |
| GCAAGCUUAAUCUGUAUGAACAUGAGGAUCACCCAUGUAUAAGGUAAUUCUUUUGGGUUUUUUAUUGCUCGUCUUAU [JR_STOV1_Sub025] (Eterna round: R97, puzzle: Sensor, turn-off variant 1) | 0.189 µM | 0.21 µM |  |  |  |  |
| UAGGAGCAAGGAUAUACGAGGAUAUGGUAGUUUGUAGAGUGACAUGAGGAUCACCCAUGUAGAAGGUGCGUGUG [JR_Exclu2_Sub0100] (puzzle: Exclusion 2) |  |  | 0.0829 µM |  |  |  |
| GAUUAUGCGAGCUUUAGGGACAUGAGGAUCACCCAUGUUCGUCUUAUUGAUCUGGAUGCACUAACAUACCUAAAUCU [JMF 27] (puzzle: Sensor v3, turn-off variant 1) |  |  | 0.0646 µM | 0.0511 µM | 0.0493 µM |  |
| UACAUGAGGAUCACCCAUGUUUUGUCGUGUAUGGUAUUUAUCUAGGAUAUCAAGUUAUUUAUUUAUGAGAAGGAGAAUAUUAAU [JMF's solution 10] (Eterna round: R96, puzzle: Exclusion NG 3) | 0.04 µM | 0.0373 µM |  |  |  | 0.0307 µM |
| CCCGCAGGCUUUUUGCUCGACAUGAGGAUCACCCAUGUUGAAUGGGUUGUGUGUGUGUGAUACAUAUAUAUGGUCCU [-26.2, -50.8 kcal, A 19%] (Eterna round: R97, puzzle: Sensor, turn-off variant 1) | 0.242 µM | 0.349 µM |  |  |  |  |
| AGCUGUGGCCGAGGAUAUCUGUCCCAUAAAACCGAAAUAUAAUCGGACAUGAGGAUCACCCAUGUAGAGAAGGCGGUCUCAGCA [Eli eng2 - 098] (Eterna round: R96, puzzle: Exclusion NG 2) |  |  |  |  |  | 0.0313 µM |
| GCCAGAGCAGGAUAUUCAAUAUCACACAUGAGGAUCACCCAUGUCUGGCGAAAGCUAGAGGGAGAAGGGCUCUGGC [Mat - Exclusion 5 - Eli mod - D97] (puzzle: Exclusion 5) |  |  | 0.0388 µM | 0.0179 µM | 0.0552 µM |  |
| GCAGCGUAUGUAGGAUAUCGGUCAGUUUCUGAUCGAGAAGGACAUGAGGAUCACCCAUGUUAAGUCAUGCGUGAGCAUGGCUGC [JL ENG1 3.72] (Eterna round: R96, puzzle: Exclusion NG 1) | 0.317 µM | 0.0314 µM |  |  |  | 0.0238 µM |
| CUGACUCAAGGAUAUUGUACUGCUGACAUGAGGAUCACCCAUGUAUGUUAACUCGGCCGACGAGAAGGUGACAAAA [BotMod 7 - Jieux - Exclusion 5] (Eterna round: R97, puzzle: Exclusion 5) | 0.126 µM | 0.111 µM |  |  |  |  |
| CCUUUGUCAGGAUAUCAGAACGCGCUCGUAGGGAGCGCAAAUGAGAAGGGACAUGAGGAUCACCCAUGUAAAGA [Gequleon] (puzzle: Exclusion 4) |  |  | 0.0436 µM | 0.204 µM | 0.0482 µM |  |
| GGAAAGGUAGGAUAUACGAAGAAAAAGGGUAGAAUAAUAACACAUGAGGAUCACCCAUGUAGAAGGACCAAAGG [Mat - Exclusion 2 - Mod of my Tesla design - D6] (puzzle: Exclusion 2) |  |  | 0.0231 µM | 0.0405 µM | 0.0193 µM |  |
| AAAGGAGUAGGAUAUGAGCCCAAAUACAUGAGGAUCACCCAUGUCGGGUUCAUGGAGGGCUUAGAAGGAUUUAAAA [Onreridi] (Eterna round: R97, puzzle: Exclusion 5) | 0.0258 µM | 0.0231 µM |  |  |  |  |
| UCCGUGUGAGGAUAUGCGAAUGACGAGUUACCUUGUCGCAAGCAGAAGGUACAUGAGGAUCACCCAUGUCCUAU [Eternabot (L1) Solution 61] (Eterna round: R97, puzzle: Exclusion 4) | 0.0278 µM | 0.0204 µM |  |  |  |  |
| CCUUGUCUGAAGGAUAUCCGCCGAAAAGGCAAGGGAGAAGGUUAGACAUGAGGAUCACCCAUGUGCCGGUGUAA [EX6 A.3] (Eterna round: R97, puzzle: Exclusion 6) | 0.0442 µM | 0.0255 µM |  |  |  |  |
| ACUUAUUGAGGAUAUACAUAAAUUUACAUGAGGAUCACCCAUGUUCUUCUAUGUAUAUAUGUAGAAGGCAGAAGAG [Mat - Exclusion 5 - JL Mod - D33] (Eterna round: R97, puzzle: Exclusion 5) | 0.0301 µM | 0.0172 µM |  |  |  |  |
| GUAAUAGUGGUUAGGAUAUGCGAUCGAAAAUAGGUGCAGAAGGAACAUGAGGAUCACCCAUGUGCCUCCUCAAU [Eternabot (L1) Solution 6] (Eterna round: R97, puzzle: Brourd's mod of Exclusion 4) | 0.0242 µM | 0.0156 µM |  |  |  |  |
| GGCAGUCGAGGAUAUACAAUCGUGCUUCGGCACGUAAGAUCACAUGAGGAUCACCCAUGUAGAAGGCGACUGCC [E2/1-A1] (Eterna round: R97, puzzle: Exclusion 2) | 0.749 µM | 0.0532 µM |  |  |  |  |

| Sequence | apparent KD of MS2 coat protein (input ligand: FMN 200 uM) | apparent KD of MS2 coat protein (input ligand: none) | apparent KD of MS2 coat protein [1] | apparent KD of MS2 coat protein [2] | apparent KD of MS2 coat protein [3] | apparent KD of MS2 coat protein [4] |
| --- | --- | --- | --- | --- | --- | --- |
| GGUGAGCUAGGAUAUGCUUUGGGCUCGCUUUCCUUCGAUAAACUUGAGGAUCACCCAAGUAGAAGGAGCUUGCC [salish99_ex2_r4_033] (Eterna round: R97, puzzle: Exclusion 2) | 0.0148 µM | 0.012 µM |  |  |  |  |
| GCAGGUUAAGUCAGGAUAUACCUAUGGAUACAUAGGUAGAAGGGACAUGAGGAUCACCCAUGUUUCUCAUCUGC [Mod of Eli 2 - Jieux - Brourd's mod of Exclusion 4] (Eterna round: R97, puzzle: Brourd's mod of Exclusion 4) | 0.0615 µM | 0.0217 µM |  |  |  |  |
| AGAUCACAUGAGGAUCACCCAUGUGAGGAUAUAGACUGAAGAGCUUCGGCUCUUCAGUCUAGAAGGCACUAUGA [EX1 #45] (Eterna round: R97, puzzle: Exclusion 1) | 0.0289 µM | 0.0259 µM |  |  |  |  |
| UAAGAUUAUUGAGGAUAUGGUAAUUUUUAUUAACCAGAAGGCAAACUCAACAUGAGGAUCACCCAUGUAUAAAGGGUAUUAGUU [JR_ExcNG1_Sub096] (Eterna round: R96, puzzle: Exclusion NG 1) |  |  |  |  |  | 0.0512 µM |
| UUUUAACAUGAGGAUCACCCAUGUGAGGAUAUCGAAAUUUAUAUUAAUAUUUAUUAUUCGAGAAGGCACAUUUU [JMF 61] (puzzle: Exclusion 1) |  |  | 0.119 µM |  |  |  |
| GCCAGAGCAGGAUAUUCAAUAAUUCACAUGAGGAUCACCCAUGUCCAGCGAAAGCUGGAAGGAGAAGGGCUCUGGC [Fiskers Ex 5 - 3] (puzzle: Exclusion 5) |  |  | 0.0145 µM |  |  |  |
| UUAGCGUAAGUAAGGAUAUGCUGGUCUAAUGAUCAGCAGAAGGUACAUGAGGAUCACCCAUGUGGAUUCGUUAU [Mod of JL 10 - Jieux - Brourd's mod of Exclusion 4] (Eterna round: R97, puzzle: Brourd's mod of Exclusion 4) | 0.0358 µM | 0.0192 µM |  |  |  |  |
| CUGAAGAAGUUAGUGGCCUACAUGAGGAUCACCCAUGUGAGGGACAUGUCGAGGCAGAAGCUGAGUGCUCGUCUGUA [JR_SV3TOV1_Sub042] (puzzle: Sensor v3, turn-off variant 1) |  |  | 0.02 µM | 0.016 µM | 0.017 µM |  |
| UCUAUUUUGCGAGGAUAUCGACCAUUCCUCUUUACAUGAGGAUCACCCAUGUUCUUUUUCUACAACGAGAAGGCGCUCAUAGUU [JR_ExcNG2_Sub062] (Eterna round: R96, puzzle: Exclusion NG 2) | 0.0735 µM | 0.0616 µM |  |  |  | 0.0677 µM |
| CCUAGUUGGUAAGGAUAUCCUACACUGUUCUGACCCGGGCAAGCUACAUGAGGAUCACCCAUGUGGGAGAAGGUGCGUCAACGC [Design 13] (Eterna round: R96, puzzle: Exclusion NG 2) | 0.0308 µM | 0.0312 µM |  |  |  | 0.0222 µM |
| GCGCACCUACCAAAAGGUAGGCCAACAUGAGGAUCACCCAUGUAGGAUAUCGAUUGCUUUGCAGUCGAGAAGGACAUGAUGCGC [JL ENG3 3.80 Mod 8] (Eterna round: R96, puzzle: Exclusion NG 3) | 0.0338 µM | 0.0216 µM |  |  |  | 0.0154 µM |
| CACCUGAAGACAGGAUAUCAUACAUGAGGAUCACCCAUGUAAUAAAUGAGAAUUUCGAAUGUAAUUGAGAAGGGUCAAUAAGGC [Ostricism 96 - Jieux - Exclusion NG 2] (Eterna round: R96, puzzle: Exclusion NG 2) | 0.0587 µM | 0.0292 µM |  |  |  | 0.0313 µM |
| UAGAUACAUGAGGAUCACCCAUGUGAGGAUAUGAGAAUUAUAUUAAAUGAAUGAAUUUUCAGAAGGCACAAAGG [JR_Ex1_Sub051] (Eterna round: R97, puzzle: Exclusion 1) | 0.482 µM | 0.221 µM |  |  |  |  |
| CAUUAUUAUCGAGGAUAUCCUAUUGAAAUUCUGGGAGAAGGCGGACUCAACAUGAGGAUCACCCAUGUGAGACGGAUGCUAGGG [Ex NG1 #27] (Eterna round: R96, puzzle: Exclusion NG 1) |  |  |  |  |  | 0.015 µM |
| ACACUUGAACAUGAGGAUCACCCAUGUGUUUUUCUGGUUCGGCAGGAUAUCGUCUAACGCCAGGGCGAGAAGGGCCAAUAAAAG [Inlale] (Eterna round: R96, puzzle: Exclusion NG 3) | 0.026 µM | 0.037 µM |  |  |  | 0.0294 µM |
| GGUAGAGUGGUAGGAUAUCCGUCUGUUUCAGUCGGAGAAGGACCACAGUCACUGGGUCCAAAUAUGGGUGACCAUGUAUCUACC [pwkr exNG1 F6.3] (Eterna round: R96, puzzle: Exclusion NG 1) | 0.622 µM | 0.392 µM |  |  |  | 0.358 µM |
